Reference: publication PMC7748142

Molecular target: T1, peroxiredoxin 1 (PRDX1), murine lung fibroblasts (mouse (endogenous in MLFs)), P35700
T1 chain: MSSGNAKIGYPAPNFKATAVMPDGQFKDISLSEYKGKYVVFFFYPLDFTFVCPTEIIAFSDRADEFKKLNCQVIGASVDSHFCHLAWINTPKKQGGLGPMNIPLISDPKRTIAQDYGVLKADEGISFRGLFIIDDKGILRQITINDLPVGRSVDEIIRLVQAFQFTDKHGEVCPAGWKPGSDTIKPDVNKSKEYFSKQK
Assay: non-reducing SDS-PAGE with Western blot; A549 or MLF cells treated with Auranofin (A549: 10 uM, MLF: 2 uM) alone or with KU55933 (10 uM, 1 h pre-treatment); lysed in CHAPS buffer with 100 mM NEM; boiled in non-reducing sample buffer; disulfide-linked dimers
Details: remark: other sources report otherwise

stoichiometry N: 2
B1: peroxiredoxin 1 (PRDX1), murine lung fibroblasts, P35700 1-199 (enzyme)
chain: MSSGNAKIGYPAPNFKATAVMPDGQFKDISLSEYKGKYVVFFFYPLDFTFVCPTEIIAFSDRADEFKKLNCQVIGASVDSHFCHLAWINTPKKQGGLGPMNIPLISDPKRTIAQDYGVLKADEGISFRGLFIIDDKGILRQITINDLPVGRSVDEIIRLVQAFQFTDKHGEVCPAGWKPGSDTIKPDVNKSKEYFSKQK
